# B1: Hammerhead Ribozyme (parent)
# chain: ACCGGAUGUGCUUUCCGGUCUGAUGAGUCCGUGAGGACGAAACAG
# Variants of: B1
# Experiment: self-cleavage, relative activity (ratio to wild type); higher = more cleavage; co-transcriptional
row,Variant,self-cleavage
1,ACCGGAUGUGCUGUCCGGUCUGAUGAGUGCGUGAGGACGAAACAG,0.581
2,ACCGGAUGUGCUGUCCGGUCUGAUGAGUUCGUGAGGACGAAACAG,0.82
3,ACCGGAUGUGCUGUCCGGUCUGAUGAGUCAGUGAGGACGAAACAG,0.933
4,ACCGGAUGUGCUGUCCGGUCUGAUGAGUCGGUGAGGACGAAACAG,0.593
5,ACCGGAUGUGCUGUCCGGUCUGAUGAGUCUGUGAGGACGAAACAG,0.786
6,ACCGGAUGUGCUGUCCGGUCUGAUGAGUCCGUGAGGAAGAAACAG,0.434
7,ACCGGAUGUGCUGUCCGGUCUGAUGAGUCCGUGAGGAGGAAACAG,0.531
8,ACCGGAUGUGCUGUCCGGUCUGAUGAGUCCGUGAGGAUGAAACAG,0.724
9,ACCGGAUGUGCUGUCCGGUCUGAUGAGUCCGUGAGGACGAAAAAG,0.369
10,ACCGGAUGUGCUGUCCGGUCUGAUGAGUCCGUGAGGACGAAAGAG,0.335
11,ACCGGAUGUGCUGUCCGGUCUGAUGAGUCCGUGAGGACGAAAUAG,0.596
12,ACCGGAUGUGCUGUCCAGUCUGAUGAGUCCGUGAGGACGAAACAG,0.876
13,ACCGGAUGUGCUGUCCCGUCUGAUGAGUCCGUGAGGACGAAACAG,0.572
14,ACCGGAUGUGCUGUCCUGUCUGAUGAGUCCGUGAGGACGAAACAG,0.78
15,ACCGGAUGUGCUGUCCGAUCUGAUGAGUCCGUGAGGACGAAACAG,0.642
16,ACCGGAUGUGCUGUCCGCUCUGAUGAGUCCGUGAGGACGAAACAG,0.696
17,ACCGGAUGUGCUGUCCGUUCUGAUGAGUCCGUGAGGACGAAACAG,0.701
18,ACCGGAUGUGCUGUCCGGUCUAAUGAGUCCGUGAGGACGAAACAG,0.383
19,ACCGGAUGUGCUGUCCGGUCUCAUGAGUCCGUGAGGACGAAACAG,0.315

row,Variant,self-cleavage
1,ACCGGAUGUGCUGUCCGGUCUUAUGAGUCCGUGAGGACGAAACAG,0.306
2,ACCGGAUGUGCUGUCCGGUCUGAUAAGUCCGUGAGGACGAAACAG,0.367
3,ACCGGAUGUGCUGUCCGGUCUGAUCAGUCCGUGAGGACGAAACAG,0.315
4,ACCGGAUGUGCUGUCCGGUCUGAUUAGUCCGUGAGGACGAAACAG,0.303
5,ACCGGAUGUGCUGUCCGGUCUGAUGAAUCCGUGAGGACGAAACAG,0.66
6,ACCGGAUGUGCUGUCCGGUCUGAUGACUCCGUGAGGACGAAACAG,0.546
7,ACCGGAUGUGCUGUCCGGUCUGAUGAUUCCGUGAGGACGAAACAG,0.375
8,ACCGGAUGUGCUGUCCGGUCUGAUGAGUCCAUGAGGACGAAACAG,1.1
9,ACCGGAUGUGCUGUCCGGUCUGAUGAGUCCCUGAGGACGAAACAG,0.943
10,ACCGGAUGUGCUGUCCGGUCUGAUGAGUCCUUGAGGACGAAACAG,0.82
11,ACCGGAUGUGCUGUCCGGUCUGAUGAGUCCGUAAGGACGAAACAG,0.959
12,ACCGGAUGUGCUGUCCGGUCUGAUGAGUCCGUCAGGACGAAACAG,1.06
13,ACCGGAUGUGCUGUCCGGUCUGAUGAGUCCGUUAGGACGAAACAG,0.801
14,ACCGGAUGUGCUGUCCGGUCUGAUGAGUCCGUGAAGACGAAACAG,0.916
15,ACCGGAUGUGCUGUCCGGUCUGAUGAGUCCGUGACGACGAAACAG,0.819
16,ACCGGAUGUGCUGUCCGGUCUGAUGAGUCCGUGAUGACGAAACAG,0.873
17,ACCGGAUGUGCUGUCCGGUCUGAUGAGUCCGUGAGAACGAAACAG,0.628
18,ACCGGAUGUGCUGUCCGGUCUGAUGAGUCCGUGAGCACGAAACAG,0.709
19,ACCGGAUGUGCUGUCCGGUCUGAUGAGUCCGUGAGUACGAAACAG,0.658

row,Variant,self-cleavage
1,ACCGGAUGUGCUGUCCGGUCUGAUGAGUCCGUGAGGACAAAACAG,0.332
2,ACCGGAUGUGCUGUCCGGUCUGAUGAGUCCGUGAGGACCAAACAG,0.396
3,ACCGGAUGUGCUGUCCGGUCUGAUGAGUCCGUGAGGACUAAACAG,0.299
4,ACCGGAUGUGCUGUCCGGUCUGAUGAGUCCGUGAGGACGAAACAA,0.719
5,ACCGGAUGUGCUGUCCGGUCUGAUGAGUCCGUGAGGACGAAACAC,0.596
6,ACCGGAUGUGCUGUCCGGUCUGAUGAGUCCGUGAGGACGAAACAU,0.702
7,ACCGGAUGUGCUGACCGGUCUGAUGAGUCCGUGAGGACGAAACAG,0.428
8,ACCGGAUGUGCUGCCCGGUCUGAUGAGUCCGUGAGGACGAAACAG,0.598
9,ACCGGAUGUGCUGGCCGGUCUGAUGAGUCCGUGAGGACGAAACAG,0.796
10,ACCGGAUGUGCUGUCCGGACUGAUGAGUCCGUGAGGACGAAACAG,0.301
11,ACCGGAUGUGCUGUCCGGCCUGAUGAGUCCGUGAGGACGAAACAG,0.767
12,ACCGGAUGUGCUGUCCGGGCUGAUGAGUCCGUGAGGACGAAACAG,0.314
13,ACCGGAUGUGCUGUCCGGUCAGAUGAGUCCGUGAGGACGAAACAG,0.507
14,ACCGGAUGUGCUGUCCGGUCCGAUGAGUCCGUGAGGACGAAACAG,0.579
15,ACCGGAUGUGCUGUCCGGUCGGAUGAGUCCGUGAGGACGAAACAG,0.537
16,ACCGGAUGUGCUGUCCGGUCUGAAGAGUCCGUGAGGACGAAACAG,1.36
17,ACCGGAUGUGCUGUCCGGUCUGACGAGUCCGUGAGGACGAAACAG,0.83
18,ACCGGAUGUGCUGUCCGGUCUGAGGAGUCCGUGAGGACGAAACAG,0.654
19,ACCGGAUGUGCUGUCCGGUCUGAUGAGACCGUGAGGACGAAACAG,0.673
